Measurements from PMC10411628 (Chemical Science, 2023).

Key:
[1] = NMR titration of CP-1 with DG12; type: binding; conditions: 1H–1H COSY, equimolar CP-1 and DG12, 20 mM, d6-DMSO, 25 °C
[2] = Circular dichroism of DG12; type: physicochemical; conditions: circular dichroism spectrum
pancreatic cancer cells = conditions: cited from earlier work
CP-1 (cyclic peptide 1) [3] = assay: nanochannel device, transmembrane ionic current and Faraday current
CP-1 (cyclic peptide 1) [4] = assay: BLI
CP-1 (cyclic peptide 1) [5] = assay: electrochemical impedance spectroscopy
CP-1 (cyclic peptide 1) [6] = assay: QCM-D

In the case of DVIEVYQEQTGG [DG12], the “largest chemical shift changes upon complexation, protons of DG12” value [1] is reported as “H13 (isoleucine; C–H), H45 (glutamine; C–H), H51 (threonine; C–H), and H54 (glycine; N–H)” and the conformation [2] is reported as “random coil conformation”.

For Cc1sc(C(=O)c2cncnc2N[C@@H]2C[C@H](COS(N)(=O)=O)[C@@H](O)C2)cc1[C@@H]1NCCc2ccc(Cl)cc21 [TAK-981], the “effect on SUMOylation” value (pancreatic cancer cells) is given as “selectively reduces SUMOylation”.

B1: DG12, terminal dodecapeptide sequence of SUMO1 (peptide)
peptide: DVIEVYQEQTGG
In the case of B1, the transmembrane ionic current increase ratio at 1 × 10^−6 M DG12 (CP-1 (cyclic peptide 1) [3]) is reported as 84%, the Kd (CP-1 (cyclic peptide 1) [4]) is reported as 5.86 µM and the Rct increase at 10 nM DG12 (CP-1 (cyclic peptide 1) [5]) is reported as 277%. The adsorption amount (CP-1 (cyclic peptide 1) [6]) was 142 ng cm^−2.
